Measured values from PMC3843637 (Science signaling, 2013).
“And” between values parts separate entries of the source, which are not always exact repeats. Equal entries are not always repeated.

B1: S2LMH2EEE Y366A-W368A (domain or fragment)
chain: not shown

How the values were obtained:
SEC = molecular target: the molecule itself; experiment: SEC
S2LMH2EEE Y366A-W368A = molecular target: B1; experiment: ITC
[1] = molecular target: S2LMH2EEE/S4LMH2 heterotrimer (human, UniProt Q15796 186-467; Q13485 273-552, SSMS to EEME); experiment: ITC
PPM1A = molecular target: T1, PPM1A (human, UniProt P35813 1-382); experiment: NMR titration
T1 sequence (looked up): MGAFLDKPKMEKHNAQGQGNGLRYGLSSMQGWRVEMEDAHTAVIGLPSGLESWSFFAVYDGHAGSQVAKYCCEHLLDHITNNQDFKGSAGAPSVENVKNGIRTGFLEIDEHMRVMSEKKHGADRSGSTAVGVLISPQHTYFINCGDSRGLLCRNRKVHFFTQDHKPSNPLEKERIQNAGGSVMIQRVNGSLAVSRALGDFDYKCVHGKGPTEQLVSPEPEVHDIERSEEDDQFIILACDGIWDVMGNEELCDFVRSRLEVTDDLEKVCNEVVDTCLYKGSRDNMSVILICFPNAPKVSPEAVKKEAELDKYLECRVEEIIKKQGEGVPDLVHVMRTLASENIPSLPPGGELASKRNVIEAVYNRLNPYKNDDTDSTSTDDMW

Does B1 bind (SEC)?
Result: binds

B2: MAN1 fragment from amino acids 755 to 911 (MAN1Luhm) (domain or fragment, human, UniProt Q9Y2U8 755-911, looked up)
chain: DKILVIPSKVWQGQAFHLDRRNSPPNSLTPCLKIRNMFDPVMEIGDQWHLAIQEAILEKCSDNDGIVHIAVDKNSREGCVYVKCLSPEYAGKAFKALHGSWFDGKLVTVKYLRLDRYHHRFPQALTSNTPLKPSNKHMNSMSHLRLRTGLTNSQGSS
Which Kd (S2LMH2EEE Y366A-W368A) does the source give for B2 here?
The Kd was 37.9 µM and 33.9 µM.

What about the dH (S2LMH2EEE Y366A-W368A) of the same binder?
Its dH is -1.6 kcal/mol and -1.4 kcal/mol.

And the Kd [1]?
The Kd was 1.25 µM and 1.3 µM.

What about the dH [1] of the same binder?
Its dH is -8.4 kcal/mol.

Does B2 bind (PPM1A)?
Result: binds
